Numbering of substitutions follows the chain as printed.
T1: fragment DIR-II (last 27 amino acids of the sequence encoded by the retained intron of DIR) (human)
T1 construct: also called target fragment DIR-II
T1 peptide: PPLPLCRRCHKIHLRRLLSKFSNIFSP

B1: DNA damage-inducible transcript 4-like (DDIT4L) intron retention spliced product (DIR) protein (other)
chain: MVATGSLSSKNPASISELLDCGYHPESLLSGECPRCPPFSPPKVGASGSIGWAGFRLPPLPLCRRCHKIHLRRLLSKFSNIFSP
notes: 84 aa spliced product peptide; also called QDLIR; human DIR
B2: DIR antibody IR-II-10 (A2D10) (antibody, V domains shown)
VH: EVQLQQSGPELVKPGASVKISCKTSGYTFTEYTMHWVKQSHGKSLEWIGGIYPHNGGTNYNQKFKGKATLTVDKSSSTAYMELRSLTSEDSAVYYCTEDLTFDYWGQGTTLTVSS
VL: DIQMTQTTSSLSASLGDRVTISCSASQDISNYLNWYQQKPDGTVKLLIYYTSSLHSGVPSRFSGSGSGTDYSLTISNLEPEDIATYHCLQYSKLPFTFGSGTKLEIK
notes: Monoclonal antibody
B3: DIR antibody IR-II-1 (antibody, V domains shown)
VH: QVQLKESGAELMKPGASVKISCKATGYTFSSYWIEWVKQRPGHGLEWIGEILPGSGTTNYNDKFKGKATFTADTSSNTAYMQLSNLTSEDSAVYYCARSYDGYYVFDYWGQGTTLTVSS
VL: DIELTQSPASLAVSLGQRATISCKASQSVDYDGDSYMNWYQQKPGQPPKLLIYAASNLESGIPARFSGSGSGTDFTLNIHPVEEEDAATYYCQQSNEDPRTFGGGTKLEIK
notes: Monoclonal antibody
B4: DIR antibody IR-II-6 (antibody, V domains shown)
VH: QVQLQQSGAELMKPGASVKISCKATGYTFSRYWIEWIKQRPGHGLEWIGEILPGSYYSTNSNEKFKGKATFTADTSSNTAYMQLSSLTSEDSAVYYCARSGVITTRGDYFAMDYWGHGTSVTVSS
VL: B3 VL with E3V, I52M
notes: Monoclonal antibody; also called detection antibody
B5: DIR antibody IR-II-4 (antibody, V domains shown)
VH: QVQLQQSGAELMKPGASVKISCKATGYTFSSYWIEWVKQRPGHGLEWIGEILPGSGSTNYNEKFKGKATFTADTSSNTAYMQLNSLTSEDSAVYYCARTDDGYLSYFAMDYWGQGTSVTVSS
VL: B3 VL with E3L, L4M, S7T
notes: Monoclonal antibody
B6: DIR antibody IR-II-8 (antibody, V domains shown)
VH: QVQLQQSGAELMKPGASVKISCKATGYTFSNYWIEWVKQRPGHGLEWIGEILPGSGSTNYNEKFKGKATFTADTSSNTAYMQLSSLTSEDSAVYYCARSGMITTRGDYFAMDYWGQGTSVTVSS
VL: B3 VL with D34E, E97D
notes: Monoclonal antibody
B7: DIR antibody IR-II-5 (antibody, V domains shown)
VH: B6 VH with L11V, N31S, V37I, S55G, G56Y, S57N, Y60S, K63N, R105T, F109Y
VL: B3 VL with D34E, E97D
notes: Monoclonal antibody
B8: DIR antibody IR-II-2 (antibody, V domains shown)
VH: B6 VH with Q1E, N31S, S57T, A72V, M101V, T104A, F109Y
VL: B3 VL with E3V, L4M, E59D
notes: Monoclonal antibody
B9: DIR antibody IR-II-3 (antibody, V domains shown)
VH: B4 VH with Q1E, R31N, S61Y, M82I, V102M, H117Q
VL: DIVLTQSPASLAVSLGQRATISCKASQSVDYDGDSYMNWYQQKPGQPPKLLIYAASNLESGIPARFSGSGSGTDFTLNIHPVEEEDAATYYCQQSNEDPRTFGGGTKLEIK
notes: Monoclonal antibody
B10: DIR antibody IR-II-9 (antibody, V domains shown)
VH: B4 VH
VL: B3 VL with D34E, N96Y, E97D, T101A
notes: Monoclonal antibody
B11: DIR antibody IR-II-7 (antibody, V domains shown)
VH: B4 VH with R31N, S61Y, G67D, M82I, V102I, H117Q
VL: B3 VL with E3V, I52M
notes: Monoclonal antibody

Assays:
GluA1 = molecular target: T2, GluA1 (mouse (hippocampus of DIR-KI mice), UniProt P23818 19-907, limits assumed); assay: PLA assay in hippocampus (FIG. 20E)
T2 construct: Endogenous protein in tissue sections (PLA assay)

[1] = molecular target: T1, fragment DIR-II (last 27 amino acids of …); assay: ELISA, DIR-II coated; mAb (1 mg/mL) diluted 1:162k
Description: (§1) The binding activity of the above antibodies IR-II-1 to IR-II-10 to fragments DIR-II was detected. The method specifically comprises:
(§2) The target fragment DIR-II was coated on a 96-well plate using a coating buffer and blocked with a blocking buffer. […] Then, a secondary antibody with horseradish peroxidase (1:5k) was added and incubated at 37° C. After washing three times, an appropriate volume of TMB substrate solution was added, and the resulting mixture was incubated at 37° C. for a certain period of time, and then placed under a microplate reader to record the absorbance value of the sample at a wavelength of 450 nm.

[2] = molecular target: T1, fragment DIR-II (last 27 amino acids of …); assay: ELISA, DIR-II coated; mAb (1 mg/mL) diluted 1:1458k
Description: as §1, §2

[3] = molecular target: T1, fragment DIR-II (last 27 amino acids of …); assay: ELISA, DIR-II coated; mAb (1 mg/mL) diluted 1:6k
Description: as §1, §2

[4] = molecular target: T1, fragment DIR-II (last 27 amino acids of …); assay: ELISA, DIR-II coated; mAb (1 mg/mL) diluted 1:4374k
Description: as §1, §2

[5] = molecular target: T1, fragment DIR-II (last 27 amino acids of …); assay: ELISA, DIR-II coated; mAb (1 mg/mL) diluted 1:54k
Description: as §1, §2

[6] = molecular target: T1, fragment DIR-II (last 27 amino acids of …); assay: ELISA, DIR-II coated; mAb (1 mg/mL) diluted 1:2k
Description: as §1, §2

[7] = molecular target: T1, fragment DIR-II (last 27 amino acids of …); assay: ELISA, DIR-II coated; mAb (1 mg/mL) diluted 1:486k
Description: as §1, §2

[8] = molecular target: T1, fragment DIR-II (last 27 amino acids of …); assay: ELISA, DIR-II coated; mAb (1 mg/mL) diluted 1:18k
Description: as §1, §2

[9] = molecular target: B1; assay: sandwich ELISA, capture antibody GL Biochem AB009458, detection antibody IR-II-6 (method of paragraph 444)
Description: Methods for collecting venous blood and obtaining plasma: The blood was collected from the vein in cubital fossa of a patient into an EDTA vacuum tube by using the vacuum blood collection technique, and the tube was immediately inverted gently 8 times to fully mix the blood and an anticoagulant. Then, the tube was transported to the laboratory on ice, centrifuged for 10 min at 1500 g at 4° C., and the supernatant was aspirated, aliquoted, and stored at −80° C.
ELISA method for plasma: The plasma sample was diluted at 1:1 with 1× diluent (OBT1998G, purchased from Bio-Rad); then, 100 μl of a blocking solution was added using a pipette for blockage for 1 h at 37° C.; then, 100 μl of a proportionally diluted standard and diluted plasma were added into plate wells coated with capture antibodies (GL Biochem, AB009458) by using the pipette, the tip of which was changed for each sampling; the resulting mixture was incubated for 1.5 h at 37° C.; the liquid in each well was removed, and the well was washed 3 times with 100 μl 1× washing solution (BUF031C, purchased from Bio-Rad); 100 μl of detection antibody (i. e., the DIR antibody IR-II-6, of which a VH amino acid sequence was as set forth in SEQ ID NO. 58, and of which a VL amino acid sequence was as set forth in SEQ ID NO. […]

T2 sequence (P23818 19-907 limits assumed): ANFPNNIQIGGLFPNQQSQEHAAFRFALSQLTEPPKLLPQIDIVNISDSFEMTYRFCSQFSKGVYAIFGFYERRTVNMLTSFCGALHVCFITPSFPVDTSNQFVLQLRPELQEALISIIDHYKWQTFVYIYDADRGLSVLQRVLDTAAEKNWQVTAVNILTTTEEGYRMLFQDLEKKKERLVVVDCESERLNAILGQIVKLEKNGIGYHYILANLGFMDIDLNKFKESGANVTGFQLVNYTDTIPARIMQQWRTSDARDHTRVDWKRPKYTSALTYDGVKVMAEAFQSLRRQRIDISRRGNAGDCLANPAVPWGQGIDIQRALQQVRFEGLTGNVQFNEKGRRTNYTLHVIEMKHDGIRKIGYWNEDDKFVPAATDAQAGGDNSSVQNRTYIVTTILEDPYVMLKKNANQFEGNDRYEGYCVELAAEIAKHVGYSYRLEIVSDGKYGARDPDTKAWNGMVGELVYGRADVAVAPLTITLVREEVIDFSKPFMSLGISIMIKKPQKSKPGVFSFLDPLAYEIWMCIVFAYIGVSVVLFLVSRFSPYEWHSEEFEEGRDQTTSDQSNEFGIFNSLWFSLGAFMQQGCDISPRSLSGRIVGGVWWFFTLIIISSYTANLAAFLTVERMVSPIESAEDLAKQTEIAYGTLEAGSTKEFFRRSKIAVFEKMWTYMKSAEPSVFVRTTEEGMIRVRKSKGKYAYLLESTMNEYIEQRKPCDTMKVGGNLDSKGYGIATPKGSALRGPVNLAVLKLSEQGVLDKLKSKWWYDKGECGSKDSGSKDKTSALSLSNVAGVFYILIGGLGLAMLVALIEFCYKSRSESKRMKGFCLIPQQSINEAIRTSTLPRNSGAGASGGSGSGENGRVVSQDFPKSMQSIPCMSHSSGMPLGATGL

Binder	binding result (GluA1)	absorbance at 450 nm [1]	absorbance at 450 nm [2]	absorbance at 450 nm [3]	absorbance at 450 nm [4]	absorbance at 450 nm [5]	absorbance at 450 nm [6]	absorbance at 450 nm [7]	absorbance at 450 nm [8]	binding result [9]
B1	binds									
B2		0.0517 absorbance (450 nm)	0.0501 absorbance (450 nm)	0.472 absorbance (450 nm)	0.0427 absorbance (450 nm)	0.0783 absorbance (450 nm)	2.01 absorbance (450 nm)	0.0517 absorbance (450 nm)	0.142 absorbance (450 nm)	
B3		0.109 absorbance (450 nm)	0.0653 absorbance (450 nm)	2.98 absorbance (450 nm)	0.0934 absorbance (450 nm)	0.264 absorbance (450 nm)	3.14 absorbance (450 nm)	0.0656 absorbance (450 nm)	0.818 absorbance (450 nm)	
B4		0.414 absorbance (450 nm)	0.2 absorbance (450 nm)	3.18 absorbance (450 nm)	0.18 absorbance (450 nm)	0.78 absorbance (450 nm)	3.09 absorbance (450 nm)	0.306 absorbance (450 nm)	2.01 absorbance (450 nm)	binds
B5		0.136 absorbance (450 nm)	0.0751 absorbance (450 nm)	1.77 absorbance (450 nm)	0.0775 absorbance (450 nm)	0.186 absorbance (450 nm)	3.3 absorbance (450 nm)	0.0955 absorbance (450 nm)	0.555 absorbance (450 nm)	
B6		0.0911 absorbance (450 nm)	0.0906 absorbance (450 nm)	0.87 absorbance (450 nm)	0.0887 absorbance (450 nm)	0.138 absorbance (450 nm)	3.2 absorbance (450 nm)	0.0864 absorbance (450 nm)	0.257 absorbance (450 nm)	
B7		0.19 absorbance (450 nm)	0.0911 absorbance (450 nm)	1.31 absorbance (450 nm)	0.0868 absorbance (450 nm)	0.159 absorbance (450 nm)	3.24 absorbance (450 nm)	0.285 absorbance (450 nm)	0.387 absorbance (450 nm)	
B8		0.14 absorbance (450 nm)	0.0839 absorbance (450 nm)	1.62 absorbance (450 nm)	0.115 absorbance (450 nm)	0.193 absorbance (450 nm)	3.23 absorbance (450 nm)	0.112 absorbance (450 nm)	0.823 absorbance (450 nm)	
B9		0.366 absorbance (450 nm)	0.166 absorbance (450 nm)	3.05 absorbance (450 nm)	0.153 absorbance (450 nm)	0.4 absorbance (450 nm)	3.05 absorbance (450 nm)	0.173 absorbance (450 nm)	1.27 absorbance (450 nm)	
B10		0.318 absorbance (450 nm)	0.169 absorbance (450 nm)	3.27 absorbance (450 nm)	0.193 absorbance (450 nm)	0.622 absorbance (450 nm)	3.11 absorbance (450 nm)	0.207 absorbance (450 nm)	1.87 absorbance (450 nm)	
B11		0.164 absorbance (450 nm)	0.103 absorbance (450 nm)	2.98 absorbance (450 nm)	0.0867 absorbance (450 nm)	0.35 absorbance (450 nm)	3.09 absorbance (450 nm)	0.121 absorbance (450 nm)	1.16 absorbance (450 nm)	

From patent US20250060376A1 (PLASMARKER BIOTECHNOLOGY, published 2025)
